Results on six molecules are retold here after publication PMC6942403, “RNA sequencing reveals an additional Crz1-binding motif in promoters of its target genes in the human fungal pathogen Candida albicans”.

Series [1] addresses T1, His6-CaCrz1 (Candida albicans, UniProt Q5A4H5 1-731).
T1 sequence: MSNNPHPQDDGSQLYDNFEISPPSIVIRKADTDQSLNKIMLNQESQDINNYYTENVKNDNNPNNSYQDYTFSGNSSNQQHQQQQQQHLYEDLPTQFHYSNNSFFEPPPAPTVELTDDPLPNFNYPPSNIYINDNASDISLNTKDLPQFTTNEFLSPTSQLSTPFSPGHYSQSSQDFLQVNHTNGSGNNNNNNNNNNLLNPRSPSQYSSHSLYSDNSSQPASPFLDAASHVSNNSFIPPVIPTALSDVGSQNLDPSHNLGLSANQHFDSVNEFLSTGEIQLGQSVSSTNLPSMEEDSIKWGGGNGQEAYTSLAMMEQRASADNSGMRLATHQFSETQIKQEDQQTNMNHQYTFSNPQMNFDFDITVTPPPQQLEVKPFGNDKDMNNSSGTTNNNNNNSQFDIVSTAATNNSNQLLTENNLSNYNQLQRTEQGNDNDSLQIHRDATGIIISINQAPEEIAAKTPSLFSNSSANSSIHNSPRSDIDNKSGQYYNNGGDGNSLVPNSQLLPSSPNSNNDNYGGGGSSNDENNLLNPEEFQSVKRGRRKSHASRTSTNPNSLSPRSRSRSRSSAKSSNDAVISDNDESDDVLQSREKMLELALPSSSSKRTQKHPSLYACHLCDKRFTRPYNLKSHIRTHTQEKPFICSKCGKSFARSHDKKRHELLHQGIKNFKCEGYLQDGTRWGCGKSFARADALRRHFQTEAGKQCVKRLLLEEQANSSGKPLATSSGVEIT
Nature of the series: EMSA; 1 ug protein; abolished by unlabelled Probe 1; EMSA with DIG-labelled probes and 1 ug His6-Crz1; buffer, salt, pH and temperature not given in the material. The settings on record: protein: recombinant, tags: N-terminal His6 (pET28a(+)), label: DIG. On the technique in general: In EMSA bound probe runs differently from free probe, usually more slowly.

Series [2] has as its target T1, His6-CaCrz1. Put plainly: EMSA; 1 ug protein; EMSA with DIG-labelled probes and 1 ug His6-Crz1; buffer, salt, pH and temperature not given in the material. The following applies: protein: recombinant; tags: N-terminal His6 (pET28a(+)); label: DIG; blunt.
Series [3] has as its target T1, His6-CaCrz1. Nature of the series: EMSA; 1 ug protein; abolished by unlabelled Probe 2; EMSA with DIG-labelled probes and 1 ug His6-Crz1; buffer, salt, pH and temperature not given in the material. The following applies: protein: recombinant; tags: N-terminal His6 (pET28a(+)); label: DIG.

B1: UTR2 Probe 1 EMSA_UTR2_F/R(H) (dsDNA)
DNA 1: CTTTCATTTCATTTCTTTTCTCAACGCCTCAAAATTTGATTCTTAAAATT
DNA 2: AATTTTAAGAATCAAATTTTGAGGCGTTGAGAAAAGAAATGAAATGAAAG
In the case of B1, the binding result with His6-CaCrz1 [1] is listed as “binds”.

B2: CRZ1 Probe 3 (dsDNA)
DNA 1: TTTCAACTTCCATCATATTTACCACAATTGGATTAACTTGGTTAT
DNA 2: ATAACCAAGTTAATCCAATTGTGGTAAATATGATGGAAGTTGAAA
With B2, the binding result in the series with His6-CaCrz1 [2] is on record as “no binding”.

B3: CRZ1 Probe 4 (dsDNA)
DNA 1: AACAATTTAATCTGGTCATTTCATTTCCCCTAACAGCATCTTTCCAAGTT
DNA 2: AACTTGGAAAGATGCTGTTAGGGGAAATGAAATGACCAGATTAAATTGTT
Regarding B3, the binding result in the series with His6-CaCrz1 [2] is “no binding”.

B4: CRZ1 Probe 1 (dsDNA)
DNA 1: TGTGTGTGTGTGTGACAGTCCAGTCCCTCAACTAATTTAAAACAGTTTTT
DNA 2: AAAAACTGTTTTAAATTAGTTGAGGGACTGGACTGTCACACACACACACA
Consider B4, for which, in the series with His6-CaCrz1 [1] (blunt), the binding result is “binds”.

B5: UTR2 Probe 2 EMSA_UTR2_F/R(M) (dsDNA)
DNA 1: GGCTTAAATTCTTGAGTTGTGGGCTTTGAATTTCTTTCATTTCAT
DNA 2: ATGAAATGAAAGAAATTCAAAGCCCACAACTCAAGAATTTAAGCC
As to B5, the binding result in the series with His6-CaCrz1 [3] is recorded as “binds”.

B6: CRZ1 Probe 2 (dsDNA)
DNA 1: ATTAGAATAGAATATTATCACAGACCCCCCCAATATCTATTTATCAACCT
DNA 2: AGGTTGATAAATAGATATTGGGGGGGTCTGTGATAATATTCTATTCTAAT
On to B6, for which the binding result with His6-CaCrz1 [2] is listed as “no binding”.
